Data as given in patent US10907134B2, “Mutated genes for the catalytic protein of oplophorus luciferase and use thereof” (JNC CORPORATION, priority 2013, dated 2021).

Key:
[1] = Luminescence activity of ZZ-fused KAZ mutants in crude enzyme solutions; assay type: biochemical; conditions: for Relative Luminescence Activity (Imax): ZZ-fused (pCold-ZZ-P-), 1 mM DTT; for Luminescence activity, times higher than that of wild KAZ: coelenterazine (Table 4); for Luminescence activity, fold higher than dnKAZ / Luminescence activity, fold higher than wild KAZ: coelenterazine (Table 9)
Procedure: To express the ZZ-fused KAZ mutants in E. coli, the recombinant plasmid prepared in EXAMPLE 6 was used. Crude enzyme solutions were prepared in the same manner as EXAMPLE 4 using the E. coli BL21 strain (Novagen, Madison, Wis.) as a host cell. The resultant crude enzyme solution, 5 μL, was subjected to SDS-PAGE analysis to confirm expression of the proteins (FIG. 2). In FIG. 2, M and 1 to 18 are the same as described in FIG. 1.
DTT was added to the crude enzyme solution obtained in EXAMPLE 7 at a final concentration of 1 mM and the mixture was allowed to stand in an ice water for more than 5 hours. A luminescence reaction was started by adding 1 μL of the crude enzyme solution to 100 μL of TE containing 1 μg of coelenterazine (manufactured by JNC Corp.). The luminescence activity was determined using a luminometer (manufactured by Atto Inc.: AB2200) for 60 seconds, and the maximum intensity of luminescence (Imax) was shown as relative luminescence activity.
To express the ZZ-fused KAZ mutants in E. coli, the recombinant plasmid constructed in EXAMPLE 16 and pCold-ZZ-P-V44I-KAZ, pCold-ZZ-P-A54I-KAZ, pCold-ZZ-P-Y138I-KAZ prepared in EXAMPLE 6 were used. Crude enzyme solutions were prepared in the same manner as EXAMPLE 7, using the E. coli BL21 strain (Novagen, Madison, Wis.) as a host cell. DTT was added to the crude enzyme solutions at a final concentration of 1 mM. The mixtures were allowed to stand over 5 hours on ice, and luminescence activities were then assayed. The luminescence activities were determined by the method described in EXAMPLE 8. Also, 5 μL of the resultant crude enzyme solutions were subjected to SDS-PAGE analysis to confirm protein expression (FIG. 4). In FIG. 4, M and 1 to 9 are as follows. M: molecular weight size markers; 1: ZZ-P-KAZ; 2: ZZ-P-KAZ-V44I; 3: ZZ-P-KAZ-A54I; 4: ZZ-P-KAZ-Y138I; 5: ZZ-P-KAZ-V44I-A54I; 6: ZZ-P-KAZ-V44I-Y138I; 7: ZZ-P-KAZ-A54I-Y138I; 8: ZZ-P-KAZ-V44I-A54I-Y138I; and 9: ZZ-P-dnKAZ.

[2] = Substrate specificities of KAZ mutants (ZZ-fused, crude enzyme), bis-CTZ; assay type: biochemical; conditions: 1 μg substrate; for Relative Luminescence Activity bis-CTZ Int.: integrated for 60 seconds; for Relative Luminescence Activity bis-CTZ Imax: maximum intensity of luminescence
Procedure: (§1) The coelenterazine analogues used for substrate specificity studies were synthesized by the methods described in publications. Specifically, bis-coelenterazine was synthesized by the method described in Nakamura et al. (1997) Tetrahedron Lett. 38: 6405-6406; furimazine by the method described in Hall et al. (2012) ACS Chem. Biol. […]; and, 6h-coelenterazine, f-coelenterazine and 6h-f-coelenterazine by the methods described in Inouye et al (2013) Biochem. Biophys. Res. Commun. 437: 23-28.
(§2) DTT was added to the crude enzyme solutions obtained in EXAMPLE 17 at a final concentration of 1 mM and the mixtures were allowed to stand in an ice water for more than 5 hours in the same manner as Example 8. A luminescence reaction was started by the addition of 1 μL each of the crude enzyme solutions to 100 μL of TE containing 1 μg of coelenterazine (manufactured by JNC Corp.) or its analogues. The luminescence activities were determined using a luminometer (manufactured by Atto Inc.: AB2200) for 60 seconds, and the maximum intensity of luminescence (Imax) was shown as relative luminescence activity.

[3] = Substrate specificities of KAZ mutants (ZZ-fused, crude enzyme), 6h-f-CTZ; assay type: biochemical; conditions: 1 μg substrate; for Relative Luminescence Activity 6h-f-CTZ Int.: integrated for 60 seconds; for Relative Luminescence Activity 6h-f-CTZ Imax: maximum intensity of luminescence
Procedure: as §1, §2

[4] = Substrate specificities of KAZ mutants (ZZ-fused, crude enzyme), furimazine; assay type: biochemical; conditions: 1 μg substrate; for Relative Luminescence Activity Furimazine Int.: integrated for 60 seconds; for Relative Luminescence Activity Furimazine Imax: maximum intensity of luminescence
Procedure: as §1, §2

[5] = system: CHO-K1 cells; experiment: Luminescence activity of KAZ mutants expressed in animal culture cells without secretional signal peptide sequence; assay type: cell-based, Chinese hamster; conditions: for Relative Luminescence Activity (Imax) Cell Extracts / Relative Luminescence Activity (Imax) Culture Medium: Table 12, pcDNA3- vectors without secretion signal; for Relative Luminescence Activity (Imax) Cell Extracts / Relative Luminescence Activity (Imax) Culture Medium / Luminescence activity in the cell extracts, fold higher than wild KAZ: CHO-K1, coelenterazine; for Luminescence activity in the cell extracts, fold higher than wild KAZ: vectors without a secretion signal; for Luminescence activity compared with wild KAZ when coelenterazine was used as a substrate: summary of results
Procedure: Chinese hamster ovary cell line CHO-K1 was cultured in Ham's F-12 medium (manufactured by Wako Pure Chemical Industries, Ltd.) supplemented with 10% (v/v) fetal bovine serum (manufactured by Biowest Inc.). The CHO-K1 cells were plated in a 6-well plate in 1×10^5 cells/well/2 mL medium (n=2) and cultured in an incubator at 37° C. in 5% (v/v) CO2. After 24 hours, the purified recombinant plasmid was transfected to CHO-K1 cells using a FuGene HD transfection kit (manufactured by Promega Corp.), which was provided for subsequent experiment. Specifically, 1 μg of the recombinant plasmid pGL4.13 [Luc2/sv40], 0.1 μg of the internal standard vector and 3 μL of FuGene HD were added to 100 μL of the medium, which was allowed to stand at room temperature for 15 minutes. Subsequently, 100 μL of the DNA-FuGene complex was added to the cells in the 6 wells. After incubation for 48 hours, the culture medium was collected. On the other hand, the KAZ mutants expressed in the cells were washed 3 times with 3 mL of 1×PBS, then suspended in 1 mL of 1×PBS and disrupted on ice by ultrasonication, which was used as enzyme solutions of the cell-extracts of KAZ mutants.
A luminescence reaction was started by adding 5 μL of the culture media and cell extracts obtained in EXAMPLE 10 to 100 μL of 30 mM Tris-HCl (pH 7.6)-10 mM EDTA (manufactured by Wako Pure Chemical Industries, Ltd.) containing 0.5 μg of coelenterazine (manufactured by INC Corp.). The luminescence activity was determined using a luminometer (manufactured by Atto Inc.: AB2200) for 60 seconds, and the maximum intensity of luminescence (Imax) was defined as a percentage.
The gene fragments of the KAZ mutants with two amino acid substitutions and three amino acid substitutions and nanoKAZ containing the Kozak sequence were digested with restriction enzymes Asp718 and XbaI, and inserted into the Asp718-XbaI site of pcDNA3 vector (manufactured by Invitrogen Inc.) to construct the vectors of pcDNA3-KAZ-V44I, pcDNA3-KAZ-A54I, pcDNA3-KAZ-Y138I, pcDNA3-KAZ-V44I-A54I, pcDNA3-KAZ-V44I-Y138I, pcDNA3-KAZ-A54I-Y138I and pcDNA3-KAZ-V44I-A54I-Y138I.
The culture media of the KAZ mutants with two amino acid substitutions and KAZ mutants with three amino acid substitutions and the enzyme solutions of cell-extracts of KAZ mutants were obtained in the same manner as EXAMPLE 10.
Luminescence activities of the resulting enzyme solutions and enzyme solutions of the cell-extracts of KAZ mutants were determined in the same manner as EXAMPLE 11.

[6] = Table 4, 1 μL crude enzyme solution, 1 μg coelenterazine
[7] = Table 9, crude enzyme solution, coelenterazine
[8] = ZZ-fused, crude enzyme solution

Row | Molecule | Relative Luminescence Activity (Imax) [1, 6] | Relative Luminescence Activity (Imax) [1, 7] | Luminescence activity compared with dnKAZ ([1]; ZZ-fused, crude enzyme solution, coelenterazine) | Luminescence activity, times higher than that of wild KAZ [1, 8] | Relative Luminescence Activity bis-CTZ Int. [2] | Relative Luminescence Activity bis-CTZ Imax [2] | Relative Luminescence Activity 6h-f-CTZ Int. [3] | Relative Luminescence Activity 6h-f-CTZ Imax [3] | Relative Luminescence Activity Furimazine Int. [4] | Relative Luminescence Activity Furimazine Imax [4] | Relative Luminescence Activity (Imax) Cell Extracts [5] | Relative Luminescence Activity (Imax) Culture Medium [5] | Luminescence activity in the cell extracts, fold higher than wild KAZ [5] | Luminescence activity, fold higher than dnKAZ [1, 8] | Luminescence activity, fold higher than wild KAZ [1, 8] | Luminescence activity compared with wild KAZ when coelenterazine was used as a substrate [5]
1 | KAZ-A54I: KAZ with single amino acid substitution A54I, SEQ ID NO: 6 (protein) FTLADFVGDWQQTAGYNQDQVLEQGGLSSLFQALGVSVTPIQKVVLSGENGLKIDIHVIIPYEGLSGFQMGLIEMIFKVVYPVDDHHFKIILHYGTLVIDGVTPNMIDYFGRPYPGIAVFDGKQITVTGTLWNGNKIYDERLINPDGSLLFRVTINGVTGWRLCENILA | 8.9 | 8.4 | comparable to dnKAZ | 8.9 times | 3.4 | 3.0 | 2.0 | 1.6 | 2.1 | 2.0 | 6.7 | 0.03 | 6.7 fold | – | – | –
2 | KAZ-V44I: KAZ with single amino acid substitution V44I, SEQ ID NO: 4 (protein) FTLADFVGDWQQTAGYNQDQVLEQGGLSSLFQALGVSVTPIQKIVLSGENGLKADIHVIIPYEGLSGFQMGLIEMIFKVVYPVDDHHFKIILHYGTLVIDGVTPNMIDYFGRPYPGIAVFDGKQITVTGTLWNGNKIYDERLINPDGSLLFRVTINGVTGWRLCENILA | 6.6 | 7.2 | – | 6.6 times | 1.4 | 1.1 | 0.7 | 0.6 | 0.9 | 0.6 | 3.7 | 0.06 | 3.7 fold | – | – | –
3 | KAZ-Y138I: KAZ with single amino acid substitution Y138I, SEQ ID NO: 8 (protein) FTLADFVGDWQQTAGYNQDQVLEQGGLSSLFQALGVSVTPIQKVVLSGENGLKADIHVIIPYEGLSGFQMGLIEMIFKVVYPVDDHHFKIILHYGTLVIDGVTPNMIDYFGRPYPGIAVFDGKQITVTGTLWNGNKIIDERLINPDGSLLFRVTINGVTGWRLCENILA | 5.9 | 7.5 | – | 5.9 times | 1.5 | 1.3 | 0.8 | 0.6 | 0.8 | 0.6 | 6.4 | 0.03 | 6.4 fold | – | – | –
4 | KAZ-V44I-A54I: KAZ mutant with two amino acid substitutions V44I and A54I, SEQ ID NO: 10 (protein) FTLADFVGDWQQTAGYNQDQVLEQGGLSSLFQALGVSVTPIQKIVLSGENGLKIDIHVIIPYEGLSGFQMGLIEMIFKVVYPVDDHHFKIILHYGTLVIDGVTPNMIDYFGRPYPGIAVFDGKQITVTGTLWNGNKIYDERLINPDGSLLFRVTINGVTGWRLCENILA | – | 15.3 | – | – | 5.9 | 5.7 | 4.0 | 3.2 | 4.3 | 3.4 | 22.5 | 0.05 | 23 fold | 1.6 fold | 15 fold | markedly higher luminescence activities than wild KAZ
5 | KAZ-V44I-Y138I: KAZ mutant with two amino acid substitutions V44I and Y138I, SEQ ID NO: 12 (protein) FTLADFVGDWQQTAGYNQDQVLEQGGLSSLFQALGVSVTPIQKIVLSGENGLKADIHVIIPYEGLSGFQMGLIEMIFKVVYPVDDHHFKIILHYGTLVIDGVTPNMIDYFGRPYPGIAVFDGKQITVTGTLWNGNKIIDERLINPDGSLLFRVTINGVTGWRLCENILA | – | 17.1 | – | – | 8.3 | 7.9 | 4.2 | 3.6 | 5.4 | 5.1 | 14.7 | 0.04 | 15 fold | 1.8 fold | 17 fold | markedly higher luminescence activities than wild KAZ
